For 17 molecules, Bmax and OD450 results are on record in patent US20210017287A1 (published 2021).

T1: TNFRSF25-Fc fusion protein (UniProt Q93038 25-199, limits assumed, biotinylated in the capture ELISA (site not stated))
T1 construct: also called TNFRSF25-Fc protein; biotinylated antigen protein; not shown: Fc part
T1 sequence (looked up): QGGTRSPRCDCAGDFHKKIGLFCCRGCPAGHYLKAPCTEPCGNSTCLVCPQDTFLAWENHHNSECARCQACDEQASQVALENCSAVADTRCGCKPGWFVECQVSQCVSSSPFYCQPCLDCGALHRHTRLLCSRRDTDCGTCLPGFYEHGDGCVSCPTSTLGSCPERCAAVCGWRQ

B1: 1F10 (scFv, V domains shown)
VH: EVQLVESGGGLSQPGNSLQLSCEASGFTFSNHDLNWVRQAPGKGLEWVAYISSASGLISYADAVRGRFTISRDNAKNSLFLQMNNLKSEDTAMYYCARDPAYTGLYALDFWGQGTQVTVSS
VL: QPVLTQSPSASASLSGSVKLTCTLSSELSNFTIVWYQQRPDKAPKYVMYLKSDGSHSKGDGIPDRFSGSSSGAHRYLSISNVQSEDDATYFCGAGYTLASQYGWVFGSGTKVTVL
notes: scFv; Frameworks and unchanged CDRs are those of the parental clone
B2: W3072-z4C12-scFv (scFv, V domains shown)
VH: EVQLVESGGGLSQPGNSLQLSCEASGFTFSNHDLNWVRQAPGKGLEWVAYISSASGLISYADAVRGRFTISRDNAKNSLFLQMNNLKSEDTAMYYCARDPPYSGLYALDFWGQGTQVTVSS
VL: QPVLTQSPSASASLSGSVKLTCTLSSELSSYTIVWYQQRPDKAPKYVMYLKSDGSHSKGDGIPDRFSGSSSGAHRYLSISNVQSEDDATYFCGAGYTLAGQYGWVFGSGTKVTVL
notes: scFv (captured by anti-c-myc antibody); also called WT; wild-type
B3: 2A5 (scFv, V domains shown)
VH: EVQLVESGGGLSQPGNSLQLSCEASGFTFSNHDLNWVRQAPGKGLEWVAYISSASGLISYADAVRGRFTISRDNAKNSLFLQMNNLKSEDTAMYYCARDPAYTGLYALDFWGQGTQVTVSS
VL: QPVLTQSPSASASLSGSVKLTCTLSSELSNFTIVWYQQRPDKAPKYVMYLKSDGSHSKGDGIPDRFSGSSSGAHRYLSISNVQSEDDATYFCGMGYTLANQYGWVFGSGTKVTVL
notes: as for B1
B4: 5E1 (scFv, V domains shown)
VH: EVQLVESGGGLSQPGNSLQLSCEASGFTFSNHDLNWVRQAPGKGLEWVAYISSASGLISYADAVRGRFTISRDNAKNSLFLQMNNLKSEDTAMYYCARDPAYTGLYALDFWGQGTQVTVSS
VL: QPVLTQSPSASASLSGSVKLTCTLSSELSNYTIVWYQQRPDKAPKYVMYLKSDGSHSKGDGIPDRFSGSSSGAHRYLSISNVQSEDDATYFCGMGYTLANQYGWVFGSGTKVTVL
notes: as for B1
B5: 9A5 (scFv, V domains shown)
VH: EVQLVESGGGLSQPGNSLQLSCEASGFTFSNHDLNWVRQAPGKGLEWVAYISSASGLISYADAVRGRFTISRDNAKNSLFLQMNNLKSEDTAMYYCARDPAYTGLYALDFWGQGTQVTVSS
VL: QPVLTQSPSASASLSGSVKLTCTLSSELSGFTIVWYQQRPDKAPKYVMYLKSDGSHSKGDGIPDRFSGSSSGAHRYLSISNVQSEDDATYFCGAGYTLANQYGWVFGSGTKVTVL
notes: as for B1
B6: 9G2 (scFv, V domains shown)
VH: EVQLVESGGGLSQPGNSLQLSCEASGFTFSNHDLNWVRQAPGKGLEWVAYISSASGLISYADAVRGRFTISRDNAKNSLFLQMNNLKSEDTAMYYCARDPAYTGLYALDFWGQGTQVTVSS
VL: QPVLTQSPSASASLSGSVKLTCTLSSELSWYTIVWYQQRPDKAPKYVMYLKSDGSHSKGDGIPDRFSGSSSGAHRYLSISNVQSEDDATYFCGAGYTLAGQYGWVFGSGTKVTVL
notes: as for B1
B7: 6G11 (scFv, V domains shown)
VH: EVQLVESGGGLSQPGNSLQLSCEASGFTFSNHDLNWVRQAPGKGLEWVAYISSASGLISYADAVRGRFTISRDNAKNSLFLQMNNLKSEDTAMYYCARDPPYSGLYALDFWGQGTQVTVSS
VL: QPVLTQSPSASASLSGSVKLTCTLSSELSNFTIVWYQQRPDKAPKYVMYLKSDGSHSKGDGIPDRFSGSSSGAHRYLSISNVQSEDDATYFCGAGYTLAGQYGWVFGSGTKVTVL
notes: as for B1
B8: 10B8 (scFv, V domains shown)
VH: EVQLVESGGGLSQPGNSLQLSCEASGFTFSNHDLNWVRQAPGKGLEWVAYISSASGLISYADAVRGRFTISRDNAKNSLFLQMNNLKSEDTAMYYCARDPAYSGLYALDFWGQGTQVTVSS
VL: QPVLTQSPSASASLSGSVKLTCTLSSELSNFTIVWYQQRPDKAPKYVMYLKSDGSHSKGDGIPDRFSGSSSGAHRYLSISNVQSEDDATYFCGAGYTLAGQYGWVFGSGTKVTVL
notes: as for B1
B9: 4B6 (scFv, V domains shown)
VH: EVQLVESGGGLSQPGNSLQLSCEASGFTFSNHDLNWVRQAPGKGLEWVAYISSASGLISYADAVRGRFTISRDNAKNSLFLQMNNLKSEDTAMYYCARDPAYTGLYALDFWGQGTQVTVSS
VL: QPVLTQSPSASASLSGSVKLTCTLSSELSNYTIVWYQQRPDKAPKYVMYLKSDGSHSKGDGIPDRFSGSSSGAHRYLSISNVQSEDDATYFCGAGYTLANQYGWVFGSGTKVTVL
notes: as for B1
B10: 5A6 (scFv, V domains shown)
VH: EVQLVESGGGLSQPGNSLQLSCEASGFTFSNHDLNWVRQAPGKGLEWVAYISSASGLISYADAVRGRFTISRDNAKNSLFLQMNNLKSEDTAMYYCARDPPYTGLYALDFWGQGTQVTVSS
VL: QPVLTQSPSASASLSGSVKLTCTLSSELSNFTIVWYQQRPDKAPKYVMYLKSDGSHSKGDGIPDRFSGSSSGAHRYLSISNVQSEDDATYFCGAGYTLANQYGWVFGSGTKVTVL
notes: as for B1
B11: 3G4 (scFv, V domains shown)
VH: EVQLVESGGGLSQPGNSLQLSCEASGFTFSNHDLNWVRQAPGKGLEWVAYISSASGLISYADAVRGRFTISRDNAKNSLFLQMNNLKSEDTAMYYCARDPAYTGLYALDFWGQGTQVTVSS
VL: QPVLTQSPSASASLSGSVKLTCTLSSELSGFTIVWYQQRPDKAPKYVMYLKSDGSHSKGDGIPDRFSGSSSGAHRYLSISNVQSEDDATYFCGAGYTLARQYGWVFGSGTKVTVL
notes: as for B1
B12: 43F11 (scFv, V domains shown)
VH: EVQLVESGGGLSQPGNSLQLSCEASGFTFSNHDLNWVRQAPGKGLEWVAYISSASGLISYADAVRGRFTISRDNAKNSLFLQMNNLKSEDTAMYYCARDPPYSGLYALDFWGQGTQVTVSS
VL: QPVLTQSPSASASLSGSVKLTCTLSSELSSFTIVWYQQRPDKAPKYVMYLKSDGSHSKGDGIPDRFSGSSSGAHRYLSISNVQSEDDATYFCGAGYTLAGQYGWVFGSGTKVTVL
B13: 42F9 (scFv, V domains shown)
VH: EVQLVESGGGLSQPGNSLQLSCEASGFTFSNHDLNWVRQAPGKGLEWVAYISSASGLISYADAVRGRFTISRDNAKNSLFLQMNNLKSEDTAMYYCARDPPYSGLYALDFWGQGTQVTVSS
VL: QPVLTQSPSASASLSGSVKLTCTLSSELSFYTIVWYQQRPDKAPKYVMYLKSDGSHSKGDGIPDRFSGSSSGAHRYLSISNVQSEDDATYFCGAGYTLAGQYGWVFGSGTKVTVL
B14: 42H8 (scFv, V domains shown)
VH: EVQLVESGGGLSQPGNSLQLSCEASGFTFSNHDLNWVRQAPGKGLEWVAYISSASGLISYADAVRGRFTISRDNAKNSLFLQMNNLKSEDTAMYYCARDPPYSGLYALDFWGQGTQVTVSS
VL: QPVLTQSPSASASLSGSVKLTCTLSSELSYYTIVWYQQRPDKAPKYVMYLKSDGSHSKGDGIPDRFSGSSSGAHRYLSISNVQSEDDATYFCGAGYTLAGQYGWVFGSGTKVTVL
B15: 66B8 (scFv, V domains shown)
VH: EVQLVESGGGLSQPGNSLQLSCEASGFTFSNHDLNWVRQAPGKGLEWVAYISSASGLISYADAVRGRFTISRDNAKNSLFLQMNNLKSEDTAMYYCARDPPYSGLYALDFWGQGTQVTVSS
VL: QPVLTQSPSASASLSGSVKLTCTLSSELSSYTIVWYQQRPDKAPKYVMYLKSDGSHSKGDGIPDRFSGSSSGAHRYLSISNVQSEDDATYFCGAGYTLANQYGWVFGSGTKVTVL
B16: 10C3 (scFv, V domains shown)
VH: EVQLVESGGGLSQPGNSLQLSCEASGFTFSNHDLNWVRQAPGKGLEWVAYISSDSGLISYADAVRGRFTISRDNAKNSLFLQMNNLKSEDTAMYYCARDPPYSGLYALDFWGQGTQVTVSS
VL: QPVLTQSPSASASLSGSVKLTCTLSSELSSYTIVWYQQRPDKAPKYVMYLKSDGSHSKGDGIPDRFSGSSSGAHRYLSISNVQSEDDATYFCGAGYTLAGQYGWVFGSGTKVTVL
notes: scFv
B17: 12F7 (scFv, V domains shown)
VH: EVQLVESGGGLSQPGNSLQLSCEASGFTFSNHDLNWVRQAPGKGLEWVAYISSASQLISYADAVRGRFTISRDNAKNSLFLQMNNLKSEDTAMYYCARDPPYSGLYALDFWGQGTQVTVSS
VL: QPVLTQSPSASASLSGSVKLTCTLSSELSSYTIVWYQQRPDKAPKYVMYLKSDGSHSKGDGIPDRFSGSSSGAHRYLSISNVQSEDDATYFCGAGYTLAGQYGWVFGSGTKVTVL
notes: scFv; Position 12 is a library position read from the clone ID

The target of the first experiment is T1, TNFRSF25-Fc fusion protein. Nature of the experiment: binding ELISA of scFv clones on TNFRSF25-Fc (FIG. 10). (In an ELISA, binding on a coated surface is turned into a signal by an enzyme label.)
B1 yielded a Bmax of 1.73. The molecule B2 showed a Bmax of 0.1. On to B3, for which the Bmax is 1.28. With B4, the Bmax amounted to 1.32. The molecule B5 had a Bmax of 1.81. On the same count and under the same terms, the value for B6 was 1.04; that for B7 was 1.32; that for B8 was 1.49. The molecule B9 returned a Bmax of 1.26. On the same count and under the same terms, the value for B10 was 1.89. Still for that read-out and setting: for B11 the value was 1.53.

Another experiment deals with T1, TNFRSF25-Fc fusion protein. Briefly: single point capture ELISA, scFv captured by anti-c-myc, biotinylated antigen. As to the method:
Primary screening of the scFv library: The primary screen consisted of a single point ELISA (SPE) assay, which was carried out using periplasmic extract (PE) of bacteria grown in 96-well (deep well) plates. Briefly, this capture ELISA involved coating individual wells of a 96-well Maxisorp Immunoplate with anti-c-myc antibody in coating buffer (200 mM Na₂CO₃/NaHCO₃) at pH 9.2 overnight at 4° C. The next day, the plate was blocked with Casein for 1 hour at room temperature. scFv PE was then added to the plate and incubated at room temperature for 1 hour. After washing, biotinylated antigen protein was added to the well and the mixture was incubated for 1 hour at room temperature. This was followed by incubation with streptavidin-horseradish peroxidase (HRP) conjugate for 1 hour at room temperature. HRP activity was detected with tetra-methyl-benzidine (TMB) substrate, and the reaction was quenched with 2M HCl. Plates were read at 450 nm. […] The scFv protein concentration was determined by comparing the ELISA signals with signals generated by the reference scFv. The binding assay was repeated once more for all positive variants under normalized scFv concentrations in order to determine the relative binding affinity of the mutant scFv and the parental antibody. Selected scFv hits displaying improved binding were re-formulated to IgG1 and tested in a caspase-3 assay as described below.
Regarding B12, the OD450 worked out at 1.6 OD450. B13 registered an OD450 of 2.33 OD450.

B14 yielded an OD450 of 1.67 OD450. In turn, B15 came in with an OD450 of 0.4 OD450. B16 returned an OD450 of 0.7 OD450. For the molecule B17, the OD450 is 0.85 OD450.
